Laboratory results: paper PMC11346345 (Cell reports, 2024)

Biological target: recombinant GP38 of CCHFV Afg09-2990 (Crimean-Congo hemorrhagic fever virus, …, UniProt E5FEZ4, strain)
Experiment: SPR

B1: ADI-58048 IgG (antibody, V domains shown)
VH: QLQLQESGPGLVKPSETLSLTCTVSGGSITTSHYYWGWIRQPPGKGLEWVGSMYYSGGIYYNPSLKGRVTISVDTSKNQFSLKLSSVTAADTAVYYCALADAPDDAFDIWGQGTMVTVSS
VL: DIQMTQSPSSLSAFVGDRVTITCRASQSISSYLNWYQQKPGKAPKLLIYAASTLQSGVPSRFSGSGSGTDFTLTISSLQSEDFATYYCQESYSIPFTFGPGTKVDIK
fold reduction in binding: ~27 fold
